Measurements taken from US20240059785A1 (QILU PUGET SOUND BIOTHERAPEUTICS, published 2024).
Where a chain is given by its changes, count along the chain named. Numbers in names are those of the source.

Legend:
[1] = biological target: T1, human CD20 (Homo sapiens CD20) (Homo sapiens, UniProt P11836 1-297); test: FACS on Raji cells, titration
T1 construct: Multi-pass cell surface antigen; present on Raji, Ramos, WSU-DLCL2 cells, human CD19+ B cells, or on stably transfected CHO cells (CD20/CHO); also called hCD20
T1 sequence: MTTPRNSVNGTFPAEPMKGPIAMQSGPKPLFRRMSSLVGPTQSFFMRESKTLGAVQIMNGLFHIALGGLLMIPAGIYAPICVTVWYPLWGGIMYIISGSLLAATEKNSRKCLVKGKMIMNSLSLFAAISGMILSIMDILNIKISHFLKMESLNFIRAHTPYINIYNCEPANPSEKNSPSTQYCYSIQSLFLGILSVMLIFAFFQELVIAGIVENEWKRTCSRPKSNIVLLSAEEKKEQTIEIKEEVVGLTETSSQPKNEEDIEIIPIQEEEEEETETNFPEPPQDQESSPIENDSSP

[2] = biological target: T2, human CD37 (Homo sapiens CD37) (Homo sapiens, UniProt P11049 1-281); test: FACS on CHO cells stably expressing hCD37 (CD37/CHO)
T2 construct: Multi-pass cell surface antigen; present on Raji, Ramos, WSU-DLCL2 cells, human B cells, or on stably transfected CHO cells (CD37/CHO); also called hCD37
T2 sequence: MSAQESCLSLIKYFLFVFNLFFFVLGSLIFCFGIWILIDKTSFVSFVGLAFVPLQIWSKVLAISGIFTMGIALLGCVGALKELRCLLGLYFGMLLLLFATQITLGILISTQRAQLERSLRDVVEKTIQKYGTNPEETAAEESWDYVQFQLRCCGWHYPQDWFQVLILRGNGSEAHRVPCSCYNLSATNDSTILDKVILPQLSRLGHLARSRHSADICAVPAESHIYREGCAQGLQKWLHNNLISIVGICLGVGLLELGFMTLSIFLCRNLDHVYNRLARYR

[3] = biological target: T1, human CD20 (Homo sapiens CD20); test: FACS on CHO cells stably expressing hCD20 (CD20/CHO), EC50 of Geo MFI
[4] = biological target: T1, human CD20 (Homo sapiens CD20); test: FACS on Raji cells, crude transfection supernatant
[5] = biological target: T1, human CD20 (Homo sapiens CD20); test: FACS on WSU-DLCL2, Raji and Ramos cells, 10 µg/mL
[6] = biological target: T2, human CD37 (Homo sapiens CD37); test: FACS on WSU-DLCL2, Raji and Ramos cells, 10 µg/mL
[7] = biological target: T3, cynomolgus monkey CD37 (Macaca fasicularis CD37) (cynomolgus monkey (Macaca fasicularis …, UniProt P11049 1-281 (human entry))); test: FACS on CD20+ gated cynomolgus monkey PBMCs
T3 construct: On CD20+ or CD19+ B cells in cynomolgus monkey PBMCs; also called cynoCD37
T3 chain: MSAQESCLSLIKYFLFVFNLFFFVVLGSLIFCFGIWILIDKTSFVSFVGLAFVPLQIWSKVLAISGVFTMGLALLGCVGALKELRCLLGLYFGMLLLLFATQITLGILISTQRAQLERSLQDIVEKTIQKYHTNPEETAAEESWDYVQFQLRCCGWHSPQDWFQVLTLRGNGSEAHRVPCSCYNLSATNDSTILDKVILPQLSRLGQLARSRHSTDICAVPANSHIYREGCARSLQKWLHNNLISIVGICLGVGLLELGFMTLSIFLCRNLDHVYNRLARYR

[8] = biological target: T3, cynomolgus monkey CD37 (Macaca …); test: FACS on CD20+ gated cynomolgus monkey PBMCs, compared with anti-hCD37 Ab1
[9] = biological target: T2, human CD37 (Homo sapiens CD37); test: FACS, APC-labelled antibody on CD19+ B cells of human PBMCs
[10] = biological target: T3, cynomolgus monkey CD37 (Macaca …); test: FACS, APC-labelled antibody on CD19+ B cells of cynomolgus monkey PBMCs
[11] = biological target: T3, cynomolgus monkey CD37 (Macaca …); test: FACS, ratio of EC50 on cynomolgus monkey B cells to EC50 on human B cells
[12] = biological target: T1, human CD20 (Homo sapiens CD20); test: FACS on CHO cells stably expressing hCD20 (CD20/CHO)
[13] = biological target: T2, human CD37 (Homo sapiens CD37); test: FACS on CHO cells stably expressing hCD37 (CD37/CHO), EC50 of Geo MFI

B1: anti-hCD20 Ab1.2.2 (antibody, human IgG4 S228P, kappa)
heavy: QVQLVQSGAEVKKPGSSVKVSCKASGYTFTSYNMHWVRQAPGQGLEWMGAIYPGNGDTSYNQKFQGRVTLTVDKSSSTAYMELSSLRSEDTAVYFCARVVYYSNSYWYFDVWGTGTMVTVSSASTKGPSVFPLAPCSRSTSESTAALGCLVKDYFPEPVTVSWNSGALTSGVHTFPAVLQSSGLYSLSSVVTVPSSSLGTKTYTCNVDHKPSNTKVDKRVESKYGPPCPPCPAPELLGGPDVFLFPPKPKDTLMISRTPEVTCVVVDVSHEDPEVKFNWYVDGVEVHNAKTKPREEQYNATYRVVSVLTVLHQDWLNGKEYKCKVSNKALPAPIEKTISKAKGQPREPQVYTLPPSREMTKNQVSLTCLVKGFYPSDIAVEWESNGQPENNYKTTPPVLDSDGSFFLYSKLTVDKSRWQQGNVFSCSVMHEALHNHYTQKSLSLSPGK
light: EIVLTQSPDFQSVTPKEKVTITCRASSSVSYMHWYQQKPDQSPKPLIYAPSNLASGVPSRFSGSGSGTDYTLTINSLEAEDAATYYCQQWSFNPPTFGAGTKLEIKRTVAAPSVFIFPPSDEQLKSGTASVVCLLNNFYPREAKVQWKVDNALQSGNSQESVTEQDSKDSTYSLSSTLTLSKADYEKHKVYACEVTHQGLSSPVTKSFNRGEC
notes: Ab1.2 with S239D, S298A
With B1 the EC50 [1] was 26.3 nM.

B2: anti-hCD20 Ab1.2.2.1 (antibody, human IgG4 S228P, kappa)
heavy: QVQLVQSGAEVKKPGSSVKVSCKASGYTFTSYNMHWVRQAPGQGLEWMGAIYPGNGDTSYNQKFQGRVTLTVDKSSSTAYMELSSLRSEDTAVYFCARVVYYSNSYWYFDVWGTGTMVTVSSASTKGPSVFPLAPCSRSTSESTAALGCLVKDYFPEPVTVSWNSGALTSGVHTFPAVLQSSGLYSLSSVVTVPSSSLGTKTYTCNVDHKPSNTKVDKRVESKYGPPCPPCPAPELLGGPDVFLFPPKPKDTLMISRTPEVTCVVVDVSHEDPEVKFNWYVDGVEVHNAKTKPREEQYNATYRVVSVLTVLHQDWLNGKEYKCKVSNKALPAPIEKTISKAKGQPREPQVYTLPPSREEMTKNQVSLTCLVKGFYPSDIAVEWESNGQPENNYKTTPPVLRSDGSFFLYSELTVDKSRWQQGNVFSCSVMHEALHNHYTQKSLSLSPGK
light: B1 light
notes: Ab1.2.2 with D399R and K409E in the CH3; also called α-CD20 Ab1.2.2.1
With B2 the binding result [2] was “no binding (tested: about 0.0002 nM to about 30 nM)” and the EC50 [3] was 5.02 nM.

B3: anti-hCD20 Ab1-T6 (antibody, human IgG1, kappa, name in Kabat numbering, V domains shown)
VH: QVQLVQSGAEVKKPGSSVKVSCKASGYTFTSYNMHWVRQAPGQGLEWMGRIYPGNGDTSYNQKFQGRVTLTVDKSSSTAYMELSSLRSEDTAVYFCARVVYYSNSYWYFDVWGTGTMVTVSS
VL: EIVLTQSPDFQSVTPKEKVTITCRASSSVSYMHWYQQKPDQSPKPLIYAPSNLASGVPSRFSGSGSGTDYTLTINSLEAEDAATYYCQQWSFNPPTFGAGTKLEIKR
notes: IgG1; also called variant #3
B3: binds [4].

B4: anti-hCD20 Ab1-T7 (antibody, human IgG1, kappa, name in Kabat numbering, V domains shown)
VH: B3 VH with R50A, N55E
VL: B3 VL
notes: IgG1; also called variant #7
B4: binds [5].

B5: anti-hCD20 Ab1-T8 (antibody, human IgG1, kappa, name in Kabat numbering, V domains shown)
VH: B3 VH with R50A, S59D
VL: B3 VL
notes: IgG1; also called variant #8
B5: binds [4].

B6: anti-hCD37 Ab1 (antibody, human IgG1, kappa, V domains shown)
VH: QVQLVQSGAEVKKPGASVKVSCKASGYTFTGYNMNWVRQNNGQRLEWMGNIDPYYGGTTYNRKFKGRVTITVDTSASTAYMELKSLRSEDTAVYYCARSVGPMDYWGQGTLVTVSS
VL: DIQMTQSPSSLSASVGDRVTITCRTSENVYSYLAWYQQKPGKAPKLLIYFAKTLAEGVPSRFSGSGSGTQFTLTISSLQPEDSASYYCQHHSDNPWTFGGGTELEIKR
notes: Humanized IgG1/kappa derived from G28.1; also called aCD37 Ab1
B6: binds [6].

B7: anti-hCD37 Ab1.N19 (antibody, human IgG1, kappa, name in Kabat numbering, V domains shown)
VH: B6 VH with M34L, K65Q, M103L
VL: B6 VL with S31N, T53S, S92G
notes: IgG1 variant of anti-hCD37 Ab1
B7: binds [7].

B8: anti-hCD37 Ab1.N12 (antibody, human IgG1, kappa, V domains shown)
VH: B6 VH with M34L, K65Q
VL: B6 VL with T53S, D93E
notes: anti-hCD37 Ab1 with VH M34L + K64Q and VL T53S + D93E; also called anti-CD37 Ab1.N12
B8: binds [7].

B9: anti-hCD37 Ab1.N18 (antibody, human IgG1, kappa, name in Kabat numbering, V domains shown)
VH: B6 VH with M34L, K65Q
VL: B6 VL with S31N, L54I, D93E
notes: as for B7
B9: binds [8].

B10: anti-hCD37 Ab1.A1 (antibody, human IgG1, kappa)
heavy: not shown
light: DIQMTQSPSSLSASVGDRVTITCRTSENVYNYLAWYQQKPGKAPKLLIYFAKTLAEGVPSRFSGSGSGTQFTLTISSLQPEDSASYYCQHHSDNPWTFGGGTELEIKRTVAAPSVFIFPPSDEQLKSGTASVVCLLNNFYPREAKVQWKVDNALQSGNSQESVTEQDSKDSTYSLSSTLTLSKADYEKHKVYACEVTHQGLSSPVTKSFNRGEC
notes: anti-hCD37 Ab1 with VH-M34V + VL-S31N; also called anti-CD37 Ab1.A1
With B10 the EC50 [9] was 4.05 nM, the EC50 [10] was 254 nM and the “fold less potent than its binding of human B cells” value [11] was 62.7 fold.

B11: anti-hCD37 Ab1.A1.1 (antibody)
heavy: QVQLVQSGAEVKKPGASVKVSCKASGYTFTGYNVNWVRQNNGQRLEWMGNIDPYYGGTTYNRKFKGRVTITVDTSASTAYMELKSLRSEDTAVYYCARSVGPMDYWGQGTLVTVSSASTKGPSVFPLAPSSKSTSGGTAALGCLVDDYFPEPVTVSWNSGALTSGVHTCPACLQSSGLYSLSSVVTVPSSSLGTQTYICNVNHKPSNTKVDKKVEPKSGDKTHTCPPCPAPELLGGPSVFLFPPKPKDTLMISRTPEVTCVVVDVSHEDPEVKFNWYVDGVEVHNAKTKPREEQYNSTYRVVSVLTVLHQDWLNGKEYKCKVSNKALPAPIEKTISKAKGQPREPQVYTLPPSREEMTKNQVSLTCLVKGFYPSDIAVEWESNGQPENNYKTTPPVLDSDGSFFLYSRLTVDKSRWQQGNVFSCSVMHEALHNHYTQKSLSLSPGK
light: B10 light with S131K, Q160C, S162C, C214S
notes: Ab1.A1 with HC K147D, F170C, V173C, C220G, K409R and LC S131K, Q160C, S162C, C214S; also called α-CD37 Ab1.A1.1
In the case of B11, the binding result [12] is reported as “no binding (tested: about 0.0002 nM to about 30 nM)” and the EC50 [13] is reported as 1.33 nM.

B12: rituximab (antibody, V domains shown)
VH: QVQLQQPGAELVKPGASVKMSCKASGYTFTSYNMHWVKQTPGRGLEWIGAIYPGNGDTSYNQKFKGKATLTADKSSSTAYMQLSSLTSEDSAVYYCARSTYYGGDWYFNVWGAGTTVTVSA
VL: QIVLSQSPAILSASPGEKVTMTCRASSSVSYIHWFQQKPGSSPKPWIYATSNLASGVPVRFSGSGSGTSYSLTISRVEAEDAATYYCQQWTSNPPTFGGGTKLEIK
For B12, the EC50 [1] was 18.2 nM.
